Source: the DeepSol protein solubility set

Assay: soluble on expression in E. coli; label from the status in PepcDB or PDB records

| Sequence | soluble on expression in E. coli |
| --- | --- |
| MADNLSDTLKKLKITAVDKTEDSLEGCLDCLLQALAQNNTETSEKIQASGILQLFATLLTPQSSCKAKVANIIAEVAKNEFMRIPCVDAGLISPLVQLLNSKDQEVLLQTGRALGNICYDSHEGRSAVDQAGGAQIVIDHLRSLCSITDPANEKLLTVFCGMLMNYSNENDSLQAQLINMGVIPTLVKLLGIHCQNAALTEMCLVAFGNLAELESSKEQFASTNIAEELVKLFKKQIEHDKREMIFEVLAPLAENDAIKLQLVEAGLVECLLEIVQQKVDSDKEDDITELKTGSDLMVLLLLGDESMQKLFEGGKGSVFQRVLSWIPSNNHQLQLAGALAIANFARNDANCIHMVDNGIVEKLMDLLDRHVEDGNVTVQHAALSALRNLAIPVINKAKMLSAGVTEAVLKFLKSEMPPVQFKLLGTLRMLIDAQEAAEQLGKNVKLVERLVEWCEAKDHAGVMGESNRLLSALIRHSKSKDVIKTIVQSGGIKHLVTMATSEHVIMQNEALVALALIAALELGTAEKDLESAKLVQILHRLLADERSAPEIKYNSMVLICALMGSECLHKEVQDLAFLDVVSKLRSHENKSVAQQASLTEQRLTVES | not soluble |
| MGSDKIHHHHHHMNTLTLEYIKSILPPRPDNSHKMTFGHVLNIAGSLHYRGAAYLSSLSALRVGAGYVTLASSPSVCDSVSALTPNIVTFALRTLSPLSVHSLQRTANLHLKDAQIVDVQTLSPQAVLQLRDKLTQASAISIGSGLSIGQSTDQCIDITAINTELTVDVDVTLCTEMSAEISTDLNSDLNSDLNSDLRSELPICNVIKDNQPHSNELIPPQGNHGFFYALLNEIQTCTKPVIFDADALNFISHLLNPPVPFGTTTVTLPNKSIITPHPKELARLLNMDVATLQTQRMHFARLAAKQLNTIVVLKGKNTVITDGNDVFINPTGNSALAKAGTGDVLTGMISGFCAQGVSPINAACLGVYLHGLAGNIAAEDLSQYGMLASDLLSYIPKAILKVLAI | not soluble |
| MAHHHHHHMMMMRPDAGRRGDRHEVTRSQWEMHNSVITDDAFLFPKMELMEELHKTQPWKKSPRYFQRVKVSVLAALQMMIHAKRGSPNVTCSNGSGVADSSAASMRNEPSRENWFEVMVLMLGHFNEDEMIVTSAFALPVDASEVECSMNDASQLYMLDFLQYHQRGGTQEGCIGWYHSHPGYTCFLSGTDVNTQQLGQTAQDPWLAIVVDPVRTISTGKLDMKAFRTFPEKYVAEQQGTSQHTQGKHWEGSTTSTWVPSERIREYGVHAHRYYELPITLVRSKDDEAQLECLWSRYWALTFCSNLFTANRKLMTKQIHQLAEVLESGVASRHQTMMKGDGYLPGHKLGSQHQRKGGGAVDDETPDGVEAFKQRSLHVRYLTSSLTSEAASGGNTAGGQKFRLSSMIFLLVLARVFLSF | not soluble |
| MGSDKIHHHHHHEQKTATSEMTDVSRLMPVKIKQTVKGQEEEMLIDTVKEANRKNIKFSIAGAQHSMGGHTYYEDGIVLDMTGYNKILSLDQEKKTIRVQSGATWNDIQKYVNPYGLAVKVMQSQNIFTIGGSLSANAHGRDIRYGSLIDTVKSFRLLKADGMIITVTPKDDLFTAVIGGYGLFGVILDVTLELTDDELYVMKTEKMNYSTYSDYFSKHVKGNPDVRMHLARISTAKKGFLKDMYVTNYVLANHQDQLSSYSELKEDEYTGATKFALGLSRRYEWGRNWLWDTQQSYFLSQNGTEISRNNVMRSESKFLEYENNDNTDVLQEYFVPVKEYGSYIDDLRQTLSDEDLNLLNITIRYVQKNEKADLSYAKDDMFSLVLLINEGFSKEDQADTARIIRRMTDVAIKHGGSYYLPYMTYQTKAQMRQAYPKSEAFFQKKRTYDPDERFMNYFYQRYK | not soluble |
| MSLRYSKLTMLIPCALLLSACTTVTPAYKDNGTRSGPCVEGGPDNVAQQFYDYRILHRSNDITALRPYLSDKLATLLSDASRDNNHRELLTNDPFSSRTTLPDSAHVASASTIPNRDARNIPLRVDLKQGDQGWQDEVLMIQEGQCWVIDDVRYLGGSVHATAGTLRQSIENREGHHHHHH | soluble |
| MGQGAPLFADKGGEIAALMRGAYFVAHNVDFDLPFLQAELERAGWPPFAGPTIDTVELARIVLPTAESYKLGDLARQLGLRHDRPHQADSDAEVTAKLFIALLKRLSRLPLMTLEQLRGLARHLKSDIYLLLDAVIAKKRNKAPADRAVAVYRGIALKQPAPEPDESDRRPALASFAAFCEQEPPLPLPGYKRRAGQWEMMRLVYEALSTSQHALIEAGTGLGKSLAYLIPAAFFACEQQERVVISTHTLQLQEQLIRRDWPVLRQIAPFPLRVAVLKGKQNYLSLDKFASFLSEPSDTYDAALLKCQVLVWLLETDSGDLDELNVSSGARLLLSALAIGEEEDGGRHHFFARAKERSERADVVITNHALLLHDLTGPAPLLPPFRHLIIDEAHRLEDAAARCFGEQIGYVSFRLLTAKIAQTIAKWQEAEQDAPNGALVRCQQRLEELQFEGDELFRLLRRYALDKKPARAGRCRYRFSPTDEQSRAWQAAVELCWRLRDLAAALSAEAKPLLSADTSGDFPPSALLSADLAALNRQMAALVRLLTEKEPGVVRWIEADEKGAANAVRLYSQPVDLADFFADQLFMKKRSVVLTSATLTVRGRFTYMAARLGLEDFYPLCRSFPPPFRYEEQAALFVPADMPLVSAVPLEDYAEAVAASVLAIARRLGRRVLVLFPSYELLKLTVDALKTEEEGEPFVLIAQGVQSGSPAKLLRTFLQFEHAVLFGTSSFWEGVDLPGSALDVLVIARLPFAPPDDPVMEAKSERIRLEGGDPFSELALPEAVLRFKQGFGRLIRTEDDKGAVFVLDRRLMASPYGADFLASLPPLSVHEGALSELLDKAETWLS | not soluble |
| AHHHHHHASAKWVCKICGYIYDEDAGDPDNGISPGTKFEELPDDWVCPICGAPKSEFEKLEDGSRGAYILLLYLPRNSIIKTKGKVFRLKKGYYAYVGSGMNSLEGRVLRHLRKDKKLHWHIDYLTLIATPLKAYLVPSPVRIEEELSKSLNMVGKVVKGFGSSDLSVPGNLFFFDKDPSEKIEEIVWAFLSRKPKSDDLRQDTS | soluble |
| MQDLSGFTVPKGFRGANALKVQLWWAVQATLFAGSPQILYRWRAFLLRLFGAKIGKNVVIRPSVKITYPWKLTVGDYAWVGDDAVLYTLGEINIGAHAVISQKGYLCTGSHDYTSAHFDINAAPIVIGEKCWLATDVFVAPGVTIGHGTVVGARSSVFKSLPANAICRGNPAVVTRQRVQKVTP | not soluble |
| MGSDKIHHHHHHMATSQWRLIASICFLALTGWSTKAVSAETDKPPFYQVQWQGKSAYLLGSIHIGRADFYPLPTQIETALGKAKGLVVEVDMNKADSNALLRQYGRADKTKGLDWQSRDKQTVESMTPYCAATANVCQSIQSFAPWLQATQVNLIRYNNLGYSTDYGVDMQLMARHAALPVYQLETAESQFQLLASFDSQAQWSMVREAISTSDADLLSLIAAWRSGNEAELDSIMQEQMGGEGDTEMLEKILWRRNHVMADGIIKLMGSTEITSPLFVVVGAGHVVGDKSVVQLLEQAGAKVSACWKQTCQ | not soluble |
| MKPYLEEKLEGARKSVPGFALEELKQKIISSPIQFGKSDIDDLVSNLLKRYEQTKENSLIGKIDSIFKEISDIEKVMSAKQPEPAQQQAPVEKPKKKAKLEVIGDDVVSIMVSLRWLEFLLDNYGPENTLDVLDYYESLGWISATVKEQMMKYAKMTGVMNPAQEYKIKPSIQDHIINMLFIEKLRGEEINRDLIEALEREFRTIRKGVDELYGI | soluble |
| MGSDKIHHHHHHMLTEQPNWLMQRAQLTPERIALIYEDQTVTFAELFAASKRMAEQLAAHSVRKGDTAAILLQNRAEMVYAVHACFLLGVKAVLLNTKLSTHERLFQLEDSGSGFLLTDSSFEKKEYEHIVQTIDVDELMKEAAEEIEIEAYMQMDATATLMYTSGTTGKPKGVQQTFGNHYFSAVSSALNLGITEQDRWLIALPLFHISGLSALFKSVIYGMTVVLHQRFSVSDVLHSINRHEVTMISAVQTMLASLLEETNRCPESIRCILLGGGPAPLPLLEECREKGFPVFQSYGMTETCSQIVTLSPEFSMEKLGSAGKPLFSCEIKIERDGQVCEPYEHGEIMVKGPNVMKSYFNRESANEASFQNGWLKTGDLGYLDNEGFLYVLDRRSDLIISGGENIYPAEVESVLLSHPAVAEAGVSGAEDKKWGKVPHAYLVLHKPVSAGELTDYCKERLAKYKIPAKFFVLDRLPRNASNKLLRNQLKDARKGELL | not soluble |
| MIHEASIQHGSFGKMVADWPQEKITELWAYLKKHGSRLGGNTGPYTLRQMGADTFILSNDVEAYLRNCKIIEGGKDTKKSHDAATQAFMQWQKESGRSLTEISQIIAFSTGDNRL | not soluble |
| MEKKKVVLAYSGGLDTSVAIKWLQEKNYDIIALCLDLGEGKDLAFVKEKALSVGAIKSYMIDVQEEFANEYALMAMQAHTLYEGKYPLVSALSRPLIAKKLVEIAEQEGATAVAHGCTGKGNDQVRFEVSIQALNPYLEVIAPVREWKWSREEEIAYAKENNVPIPINLDSPFSIDQNLWGRSNECGILEDPWAAPPEDAYEMTLALEDTPNKPEFVEIGFEAGVPTTLNGTAYPLSELIKTLNALAGKHGVGRIDHVENRLVGIKSREVYECPAAMTLITAHKELEDLTLVKEVAHFKPMIEQKITELIYNGLWFSPLKQALHAFLQETQKNVTGTVRVKLFKGHAIVEGRKSEYSLYDEKLATYTAQDEFNHDAAVGFISLFGLPTKVYSQVNQKKVEA | not soluble |
| MAHHHHHHMRARRWWHGPYSLLYTLNLLLSLSLSPSHAGGGKEVSTTHTYTHPSTMQRGANVRPIKLAEKVFSTKTVCPTAASQLYVAHGLLGNSGNWATASRHLVEHSALKDKLRRAIAVDMRNHGSSTHSSDHTNAALASDLEALVLREQQELDRAFCDPSSCTTRNAILIGHSMGGLTVMGALLRRANEHHLLTSLVDHCDDVGSTSSYGAWPAEHRRQCIAGMRAVNEEFGFASSQPIAEVLFNNCRASSSLSTGSGNASRIPLLGRVAGAIIVDVTPTMRLGEQRSCADNVKETLERMTQVRLDEIHSYKDATAELIRVGMADEEMRAFVATNIALDPKDKSKPAQWKCNLPVLAGDYGSFQPSITSWFTSSATTMGPASSAAAPRLCTLPVMFVFGGESPYNEPDHRQHISRFFSNATQVEVAGAGHFVHYEKPKEFTDAVAPFIASLISQP | not soluble |
| MRKTKIVCTIGPASESIEKLEQLIEAGMNVARLNFSHGSHEEHGARIKNIREASKKTGKTVGILLDTKGPEIRTHDFVDGQAELVTGAEVVLSTEQVLGTAEKFSVSYAGLYDDVDPGSRILIDDGLIELEVIEKADGNIRTKVLNSGTVKNKKGVNVPNVSIKLPGITEKDVKDIIFGIEQKVDFIAASFVRKAADVLEIRELLEEHNAQYIQIVPKIENQEGIDNIDSILEVSDGLMVARGDMGVEIPPEEVPLVQKRLIKKCNVLGKPVITATQMLDSMQRNPRPTRAEASDVANAIFDGTDAIMLSGETAAGQYPVEAVTMMANIAVRVEKSLQYEDMFKKRIKEFTPTITDAISQSVAHTALALDVAAIVAPTESGYTAKMISKYRPKSPIVAVTSDEQVGRRLALVWGVQAFMAEKRAASTDEMLDTAIQTGMDAGLIGLGDTVVITAGVPVAETGTTNLMKIHVVGEEVAKGQGIGRKAAKGKVVVAKTAAEAVANVNEGDILVTTSTDKDMIPAIEKAAALVVEEGGLTSHAAVVGVSIGIPVIVGVNGVTATLKNGQEVTVDAARGIVYNGHAEVL | soluble |
| YLLGAFKPACNISITFSDGKNRKQVPMKKENGQTALVPLFHSQDTISGKVCIEPYQGKKVEHNGVKVELLGQIANYSYDSFLLLTTVRELDVPGEIYERKTYPFEFPTVEMPYETYNGVNVRLRYVLKVTVTRGYAGSILEYQELVRNYAPLPDINNSIKMEVGIEDCLHIEFEYNKSKYHLKDVILGKIYFLLVRIKMKNMDLEIRRRESTGAGANTHVETETLAKFELMDGTPVRGESIPVRLFLAPYDLTPTHRNINNKFSVKYYLNLVLVDEEDRRYFKQQEITLYRLKEDASS | soluble |
| GSGEQHFAEGHEQAFTGKESAAMKDVVSGHATHEAGKSTTAQPTETRSTSESSHSLRDSIMAQVRDAVTTREPNGNGRISIRLNPVELGELTINVRVADQQVKVDVVAANGQVRDILLNNLDNLKENFSRQNLTMTGFDVSTGT | not soluble |
